Like-named read-outs stand apart in the source and are kept apart here.
Tests used:
biotinylated eboIZN39IQ [1] = molecular target: biotinylated eboIZN39IQ
biotinylated eboIZN39IQ [2] = assay: SPR (ProteOn XPR36), eboC24 flowed over biotin-eboIZN39IQ, pH 5.8

B1: eboC24 (peptide)
peptide: IEPHDWTKNITDKIDQIIHDFVDK
modifications: not checked
Kd (biotinylated eboIZN39IQ [1]): 310 nM | Kd (biotinylated eboIZN39IQ [2]): 300 nM

— patent publication US20170247418A1
